Test results taken from patent US7223392 (dated 2007).

How the values were obtained:
p5E8G1N- = experiment: apparent Kd
p5E8G1 = experiment: apparent Kd

Kd (p5E8G1N-): 0.7 nM
Kd (p5E8G1): 0.7 nM
B1: human CD23 (receptor)
chain: MELQVSSGFVCNTCPEKWINFQRKCYYFGKGTKQWVHARYACDDMEGQLVSIHSPEEQDFLTKHASHTGSWIGLRNLDLKGEFIWVDGSHVDYSNWAPGEPTSRSQGEDCVMMRGSGRWNDAFCDRKLGAWVCDRLATCTPPASEGSAESMGPDSRPDPDGRLPTPSAPLHS
